Measurements from patent US8980614B2, “Staphylococcus haemolyticus prophage φSH2 endolysin is lytic for Staphylococcus aureus” (The United States of America, as represented by The …, priority 2012, dated 2015).

Experiments:
[1] = system: staphylococcal strains (MRSA strains, mastitis isolates, coagulase negative staphylococci); assay: Plate lysis assay, whole set of strains; format: cell-based, Staphylococcus; conditions: 100 to 3.125 pmoles spotted
Description: (§1) Purified proteins (100 pmoles in a 10 μl volume and five two-fold serial dilutions thereof) were spotted onto a freshly spread lawn of log phase staphylococcal cells (OD600 nm of 0.4-0.6, diluted ¼ before plating) that had air dried for 15 min on gridded TSA (tryptic soy agar) plates. The spotted plates were air dried for 10 min in a laminar flow hood and incubated overnight at 37° C. Cleared spots indicating cell lysis were scored within 24 hours of plating the cells.
(§2) The φSH2 full length enzyme and the A1 construct were further tested in plate lysis assays against a set of different staphylococcal strains, including MRSA strains (NRS 382-385), mastitis isolates (305, Tanji 1-26), and coagulase negative staphylococci (non S. aureus) (Table 2). The same molar amounts of both proteins (ranging from 100 pmoles to 3.125 pmoles, in a volume of 10 ul) were spotted onto lawns of mid log phase cells of the respective strains, and the plates were analyzed for lysis zones the next day.

S. aureus Newman = assay: Plate lysis assay; format: cell-based
Description: as §1, §2

S. warneri = assay: Plate lysis assay; format: cell-based; conditions: 100 pmoles and 2-fold serial dilutions spotted on bacterial lawns
Description: as §1, §2

S. hyicus = assay: Plate lysis assay; format: cell-based
Description: as §1, §2

S. aureus NRS 382 = assay: Plate lysis assay; format: cell-based; conditions: S. aureus NRS 382 (MRSA); 100 pmoles and 2-fold serial dilutions spotted on bacterial lawns
Description: as §1, §2

S. aureus Tanji 1 = assay: Plate lysis assay; format: cell-based; conditions: 100 pmoles and 2-fold serial dilutions spotted on bacterial lawns
Description: as §1, §2

S. simulans = assay: Plate lysis assay; format: cell-based
Description: as §1, §2

S. aureus NRS 384 = assay: Plate lysis assay; format: cell-based; conditions: S. aureus NRS 384 (MRSA); 100 pmoles and 2-fold serial dilutions spotted on bacterial lawns
Description: as §1, §2

S. aureus NRS 383 = assay: Plate lysis assay; format: cell-based; conditions: S. aureus NRS 383 (MRSA); 100 pmoles and 2-fold serial dilutions spotted on bacterial lawns
Description: as §1, §2

S. aureus Tanji 20 = assay: Plate lysis assay; format: cell-based; conditions: 100 pmoles and 2-fold serial dilutions spotted on bacterial lawns
Description: as §1, §2

S. aureus Tanji 26 = assay: Plate lysis assay; format: cell-based; conditions: 100 pmoles and 2-fold serial dilutions spotted on bacterial lawns
Description: as §1, §2

S. epidermidis = assay: Plate lysis assay; format: cell-based; conditions: 100 pmoles and 2-fold serial dilutions spotted on bacterial lawns
Description: as §1, §2

S. aureus 305 = assay: Plate lysis assay; format: cell-based; conditions: 100 pmoles and 2-fold serial dilutions spotted on bacterial lawns
Description: as §1, §2

S. aureus NRS 385 = assay: Plate lysis assay; format: cell-based; conditions: S. aureus NRS 385 (MRSA); 100 pmoles and 2-fold serial dilutions spotted on bacterial lawns
Description: as §1, §2

S. chromogenes = assay: Plate lysis assay; format: cell-based; conditions: 100 pmoles and 2-fold serial dilutions spotted on bacterial lawns
Description: as §1, §2

S. xylocus = assay: Plate lysis assay; format: cell-based; conditions: 100 pmoles and 2-fold serial dilutions spotted on bacterial lawns
Description: as §1, §2

S. aureus Tanji 19 = assay: Plate lysis assay; format: cell-based; conditions: 100 pmoles and 2-fold serial dilutions spotted on bacterial lawns
Description: as §1, §2

S. aureus Newman cells [2] = assay: Zymogram with S. aureus Newman cells embedded in the gel; format: cell-based; conditions: 5 μg protein
Description: All purified proteins were analyzed with 15% SDS-PAGE, using a Kaleidoscope Precision Plus Protein Standard (BioRad, Hercules, Calif.). For zymograms, a 300 mL culture volume equivalent of live mid-log phase (OD600nm=0.4-0.6) cells of S. aureus strain Newman was embedded in the gel during polymerization. The protein samples were boiled in Laemmli sample buffer (BioRad) with β-mercaptoethanol, and electrophoresed with identical buffers and voltage for one hour in both the SDS-PAGE and the zymogram using a Mini-Protean TETRA gel system (BioRad). SDS gels were Coomassie stained and zymograms were washed in excess water and further incubated in deionized water for 60 min, followed by incubation in 10 mM Tris, pH 8.0 with 150 mM or 300 mM NaCl for 80 min. Areas of clearing in the turbid zymogram gel indicate a lytic protein in the gel.

S. aureus Newman cells [3] = assay: Turbidity reduction assay; format: cell-based, Staphylococcus aureus
Description: The turbidity reduction assay measures a decrease in optical density of a bacterial suspension due to lysis of the target bacteria by a lytic protein. The assays were performed in a 96-well dish format essentially as described previously (Donovan et al. 2006, supra). In order to reduce the variability of the assay, frozen stocks of S. aureus Newman substrate cells were prepared in a large batch as described by Becker et al. (2009b, supra). Immediately prior to the assay, the frozen cells were thawed, washed, and resuspended in the desired assay buffer such that when 100 μl of cell suspension were added to 100 μl of lysis buffer+/−protein, the final suspension has an OD600nm of ˜1.0.
Protein constructs were assayed at a concentration of 1 μM, and the assay was performed at room temperature, measuring the OD600nm at 1 min intervals for 45 min. Buffer without enzyme served as the control. The steepest slopes of the resulting lysis curves, which correspond to the lytic activities of the proteins, were determined by a sliding window over each group of three consecutive time points for the entire 45 min period. Specific activities were expressed as ΔOD600nm/min/μM, and the “no enzyme” control value was subtracted from each experimental value.
In order to determine the effect of salt concentration on lytic activity, turbidity reduction assays were performed in 10 mM Tris buffers at pH 7.5 with varying NaCl concentrations between 0 mM and 600 mM. Accordingly, the influence of pH was determined by using a series of different buffers with pH values ranging from 3.5 to 10.0. Citrate buffers were used for pH 3.5, 4.5, 5.5, and 6.0, MOPS buffers for pH 6.5, 7.0, and 7.5, Tris buffers for pH 8.0 and 9.0, and Carbonate/bicarbonate buffer for pH 10.0. The concentration of the buffer substance in all buffers used was 20 mM, and the NaCl concentration was 200 mM. To test the effect of bivalent metal ions, assays were performed in 10 mM Tris, 200 mM NaCl, pH 7.5 supplemented with MgCl2, MnCl2, or CaCl2 at different concentrations (0.1 mM, 1 mM, 10 mM), buffer without metal ions serving as control.

[4] = 100 pmoles and 2-fold serial dilutions spotted on bacterial lawns

B1: ΦSH2 A1: Truncation of φSH2 lysin (1-166), isolated CHAP domain, 6×His-tagged, from pφSH2_A1, SEQ ID NO:4 (protein)
chain: MKTQAEINKRLDAYRKGTVDSPYRVKVWTSYDNRFYPMEPGCIDVDKSFHAQCADLTIDYILWLTDNEFRIRGNAKDAINPKKNKLPEGWKIVLNRPSTVPRKGWIAVFTDGTYWEYGHIGMVYDGGNTSRFQILEQNWNGWANKKPSLRWDNYYGLTHFIVPPVALEHHHHHH
modifications: 6xHis tag; Bacteriophage Phi SH2
strains against which lytic activity was displayed ([1]; 16 strains tested): 13 out of 16
MRSA strains lysed ([1]; four MRSA strains (NRS 382-385)): two MRSA strains
Lytic activity (lowest amount of protein producing a lysis zone) (S. aureus Newman; [4]): + (+: 100 pmoles)
amount of protein causing a lysis zone (S. aureus Newman; 100 to 3.125 pmoles spotted): 100 pmol
Lytic activity (lowest amount of protein producing a lysis zone) (S. warneri): ++ (++: 50 pmoles)
Lytic activity (lowest amount of protein producing a lysis zone) (S. hyicus; [4]): ++++ (++++: 12.5 pmoles)
amount of protein causing a lysis zone (S. hyicus; 100 to 3.125 pmoles spotted): 12.5 pmol
Lytic activity (lowest amount of protein producing a lysis zone) (S. aureus NRS 382): ++ (++: 50 pmoles)
Lytic activity (lowest amount of protein producing a lysis zone) (S. aureus Tanji 1): +++ (+++: 25 pmoles)
Lytic activity (lowest amount of protein producing a lysis zone) (S. simulans; [4]): +++ (+++: 25 pmoles)
amount of protein causing a lysis zone (S. simulans; 100 to 3.125 pmoles spotted): 25 pmol
Lytic activity (lowest amount of protein producing a lysis zone) (S. aureus NRS 384): ++ (++: 50 pmoles)
Lytic activity (lowest amount of protein producing a lysis zone) (S. aureus NRS 383): − (‘−’ means that no lysis was observed at the highest amount tested (100 pmoles))
Lytic activity (lowest amount of protein producing a lysis zone) (S. aureus Tanji 20): +++ (+++: 25 pmoles)
Lytic activity (lowest amount of protein producing a lysis zone) (S. aureus Tanji 26): + (+: 100 pmoles)
Lytic activity (lowest amount of protein producing a lysis zone) (S. epidermidis): − (‘−’ means that no lysis was observed at the highest amount tested (100 pmoles))
Lytic activity (lowest amount of protein producing a lysis zone) (S. aureus 305): ++++ (++++: 12.5 pmoles)
Lytic activity (lowest amount of protein producing a lysis zone) (S. aureus NRS 385): − (‘−’ means that no lysis was observed at the highest amount tested (100 pmoles))
Lytic activity (lowest amount of protein producing a lysis zone) (S. chromogenes): ++ (++: 50 pmoles)
Lytic activity (lowest amount of protein producing a lysis zone) (S. xylocus): ++ (++: 50 pmoles)
Lytic activity (lowest amount of protein producing a lysis zone) (S. aureus Tanji 19): +++ (+++: 25 pmoles)
lysis in zymogram (S. aureus Newman cells [2]; after incubation in deionized water for 60 min): did not cause a lytic band
lysis in zymogram (S. aureus Newman cells [2]; water 60 min, then 10 mM Tris, 150 mM NaCl, pH 8.0 up to 80 min): intense lytic band
lytic (specific) activity compared with the full length φSH2 lysin (S. aureus Newman cells [3]; 1 μM protein, at optimum salt concentration): approximately three-fold higher
increase of lytic activity by Ca2+ (S. aureus Newman cells [3]; 1 mM CaCl2, relative to 0 mM, 10 mM Tris, 200 mM NaCl, pH 7.5): more than 6 fold
effect of Mg2+ on lytic activity (S. aureus Newman cells [3]; 0.1-10 mM MgCl2, 10 mM Tris, 200 mM NaCl, pH 7.5): not significantly alter
effect of Mn2+ on lytic activity (S. aureus Newman cells [3]; 0.1-10 mM MnCl2, 10 mM Tris, 200 mM NaCl, pH 7.5): slightly inhibitory effect
